The chains are these.
B1: TM2 domain of in the TOXCAT construct (between MBP and ToxR) [guinea pig] / itself (parent)
chain: WVFVNAGGWMGAMCLLHASL

The values below come from publication PMC4106346, “The Oligomeric States of the Purified Sigma-1 Receptor Are Stabilized by Ligands” (The Journal of Biological Chemistry, 2014).

Variants of B1 are the subject of the experiment. Description: TOXCAT. The settings on record: with itself;; read off a plot.
On to WVFVNAGGWMGAMCLLAASL [chain 1 H17A], for which the response was 20 %GpA. Turning to WVFVNAGIWMGAMCLLHASL [chain 1 G8I], the response is 100 %GpA. Take WVFVNAGLWMGAMCLLHASL [chain 1 G8L]: the response was determined as 89 %GpA. The same measure for WVFVNAIGWMGAMCLLHASL [chain 1 G7I]: 94 %GpA; for WVFVNALGWMGAMCLLHASL [chain 1 G7L]: 77 %GpA; for WVFVNALLWMGAMCLLHASL [chain 1 G7L G8L]: -2.7 %GpA.
